# B1: 9H2.2H1 (antibody, from a related filing, V domains shown)
# VH: QVQLQQPGAELVGPGSSVKLSCKASGYTFTNYWIHWVKQRPLQGLEWIGNIDPSDSETHYNQKFKDKATLTVDKSSSTAYMQLSSLTSEDSAVYYCARHGYYDYWGQGTTLTVSS
# VL: DIVMTQSHKFMSTSVGDRVSITCKASQDVSTAVAWYQQKPGQSPKLLIYWASTRHTGVPDRFTGSGSGTDYTLTISSVQAEDLALYYCQQHYTTPLTFGAGTKLELKR
# Assays:
# [1] = target: Human Galectin-3 protein (Acro Biosystems, GA3-H5129) (human) (UniProt P17931); assay: ELISA, hGal3 coated, antibody 3 ug/mL, competitor hTIM3
# [2] = target: Human Galectin-3 protein (Acro Biosystems, GA3-H5129) (human) (UniProt P17931); assay: ELISA, hGal3 coated, competitor hTIM3 (FIG. 24)
# [3] = target: Human Galectin-3 protein (Acro Biosystems, GA3-H5129) (human) (UniProt P17931); assay: SPR Biacore T200, antibody captured, Galectin-3 analyte
# Sequence of Human Galectin-3 protein (Acro Biosystems, GA3-H5129) (human) (P17931 2-250): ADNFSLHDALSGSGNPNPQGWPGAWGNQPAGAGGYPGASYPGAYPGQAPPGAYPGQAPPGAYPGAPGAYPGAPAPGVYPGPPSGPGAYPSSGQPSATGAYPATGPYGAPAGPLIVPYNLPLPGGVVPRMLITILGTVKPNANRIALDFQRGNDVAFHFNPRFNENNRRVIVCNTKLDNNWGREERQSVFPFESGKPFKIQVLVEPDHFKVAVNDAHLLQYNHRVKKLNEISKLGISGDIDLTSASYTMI
binder,measurement,setting,value
B1,GAL3-TIM3 Blocking @ 3 ug/mL,[1],6%
same,reduction of TIM3-GAL3 binding,[2],< 25%
same,Kd,[3],18.4 nM
